B1: UGT71C3: Arabidopsis recombinant glycosyltransferase, FIG. 2 (protein, listed as Arabidopsis thaliana)
chain: MKAEAEIIFVTYPSPGHLLVSIEFAKSLIKRDDRIHTITILYWALPLAPQAHLFAKSLVASQPRIRLLALPDVQNPPPLELFFKAPEAYILESTKKTVPLVRDALSTLVSSRKESGSVRVVGLVIDFFCVPMIEVANELNLPSYIFLTCNAGFLSMMKYLPERHRITTSELDLSSGNVEHPIPGYVCSVPTKVLPPGLFVRESYEAWVEIAEKFPGAKGILVNSVTCLEQNAFDYFARLDENYPPVYPVGPVLSLKDRPSPNLDASDRDRIMRWLEDQPESSIVYICFGSLGIIGKLQIEEIAEALELTGHRFLWSIRTNPTEKASPYDLLPEGFLDRTASKGLVCDWAPQVEVLAHKALGGFVSHCGWNSVLESLWFGVPIATWPMYAEQQLNAFSMVKELGLAVELRLDYVSAYGEIVKAEEIAGAIRSLMDGEDTPRKRVKEMAEAARNALMDGGSSFVAVKRFLDELIGGDV
B2: UGT76D1: Arabidopsis recombinant glycosyltransferase, FIG. 7 (protein, listed as Arabidopsis thaliana)
chain: MAEIRQRRVLMVPAPFQGHLPSMMNLASYLSSQGFSITIVRNEFNFKDISHNFPGIKFFTIKDGLSESDVKSLGLLEFVLELNSVCEPLLKEFLTNHDDVVDFIIYDEFVYFPRRVAEDMNLPKMVFSPSSAATSISRCVLMENQSNGLLPPQDARSQLEETVPEFHPFRFKDLPFTAYGSMERLMILYENVSNRASSSGIIHNSSDCLENSFITTAQEKWGVPVYPVGPLHMTNSAMSCPSLFEEERNCLEWLEKQETSSVIYISMGSLAMTQDIEAVEMAMGFVQSNQPFLWVIRPGSINGQESLDFLPEQFNQTVTDGRGFVVKWAPQKEVLRHRAVGGFWNHGGWNSCLESISSGVPMICRPYSGDQRVNTRLMSHVWQTAYEIEGELERGAVEMAVRRLIVDQEGQEMRMRATILKEEVEASVTTEGSSHNSLNNLVHAIMMQIDEQ
B3: UGT71C4: Arabidopsis recombinant glycosyltransferase, FIG. 3 (protein, listed as Arabidopsis thaliana)
chain: MVKETELIFIPVPSTGHILVHIEFAKRLINLDHRIHTITILNLSSPSSPHASVFARSLIASQPKIRLHDLPPIQDPPPFDLYQRAPEAYIVKLIKKNTPLIKDAVSSIVASRRGGSDSVQVAGLVLDLFCNSLVKDVGNELNLPSYIYLTCNARYLGMMKYIPDRHRKIASEFDLSSGDEELPVPGFINAIPTKFMPPGLFNKEAYEAYVELAPRFADAKGILVNSFTELEPHPFDYFSHLEKFPPVYPVGPILSLKDRASPNEEAVDRDQIVGWLDDQPESSVVFLCFGSRGSVDEPQVKEIARALELVGCRFLWSIRTSGDVETNPNDVLPEGFMGRVAGRGLVCGWAPQVEVLAHKAIGGFVSHCGWNSTLESLWFGVPVATWPMYAEQQLNAFTLVKELGLAVDLRMDYVSSRGGLVTCDEIARAVRSLMDGGDEKRKKVKEMADAARKALMDGGSSSLATARFIAELFEDGSSC
B4: UGT76E2: Arabidopsis recombinant glycosyltransferase, FIG. 8 (protein, listed as Arabidopsis thaliana)
chain: MEEKQVKETRIVLVPVPAQGHVTPMMQLGKALHSKGFSITVVLTQSNRVSSSKDFSDFHFLTIPGSLTESDLQNLGPQKFVLKLNQICEASFKQCIGQLLHEQCNNDIACVVYDEYMYFSHAAVKEFQLPSVVFSTTSATAFVCRSVLSRVNAESFLIDMKDPETQDKVFPGLHPLRYKDLPTSVFGPIESTLKVYSETVNTRTASAVIINSASCLESSSLARLQQQLQVPVYPIGPLHITASAPSSLLEEDRSCVEWLNKQKSNSVIYISLGSLALMDTKDMLEMAWGLSNSNQPFLWVVRPGSIPGSEWTESLPEEFNRLVSERGYIVKWAPQMEVLRHPAVGGFWSHCGWNSTVESIGEGVPMICRPFTGDQKVNARYLERVWRIGVQLEGDLDKETVERAVEWLLVDEEGAEMRKRAIDLKEKIETSVRSGGSSCSSLDDFVNSM
B5: UGT76E11: Arabidopsis recombinant glycosyltransferase (protein, UniProt Q9SNB1 1-451, looked up)
UDP-glycosyltransferase 76E11: MEEKPAGRRVVLVAVPAQGHISPIMQLAKTLHLKGFSITIAQTKFNYFSPSDDFTDFQFVTIPESLPESDFEDLGPIEFLHKLNKECQVSFKDCLGQLLLQQGNEIACVVYDEFMYFAEAAAKEFKLPNVIFSTTSATAFVCRSAFDKLYANSILTPLKEPKGQQNELVPEFHPLRCKDFPVSHWASLESMMELYRNTVDKRTASSVIINTASCLESSSLSRLQQQLQIPVYPIGPLHLVASASTSLLEENKSCIEWLNKQKKNSVIFVSLGSLALMEINEVIETALGLDSSKQQFLWVIRPGSVRGSEWIENLPKEFSKIISGRGYIVKWAPQKEVLSHPAVGGFWSHCGWNSTLESIGEGVPMICKPFSSDQMVNARYLECVWKIGIQVEGDLDRGAVERAVRRLMVEEEGEGMRKRAISLKEQLRASVISGGSSHNSLEEFVHYMRTL
B6: UGT73B4: Arabidopsis recombinant glycosyltransferase (protein, UniProt Q7Y232 1-484, looked up)
UDP-glycosyltransferase 73B4: MNREQIHILFFPFMAHGHMIPLLDMAKLFARRGAKSTLLTTPINAKILEKPIEAFKVQNPDLEIGIKILNFPCVELGLPEGCENRDFINSYQKSDSFDLFLKFLFSTKYMKQQLESFIETTKPSALVADMFFPWATESAEKIGVPRLVFHGTSSFALCCSYNMRIHKPHKKVASSSTPFVIPGLPGDIVITEDQANVTNEETPFGKFWKEVRESETSSFGVLVNSFYELESSYADFYRSFVAKKAWHIGPLSLSNRGIAEKAGRGKKANIDEQECLKWLDSKTPGSVVYLSFGSGTGLPNEQLLEIAFGLEGSGQNFIWVVSKNENQVGTGENEDWLPKGFEERNKGKGLIIRGWAPQVLILDHKAIGGFVTHCGWNSTLEGIAAGLPMVTWPMGAEQFYNEKLLTKVLRIGVNVGATELVKKGKLISRAQVEKAVREVIGGEKAEERRLRAKELGEMAKAAVEEGGSSYNDVNKFMEELNGRK
B7: UGT73B1: Arabidopsis recombinant glycosyltransferase (protein, UniProt Q8VZE9 1-488, looked up)
UDP-glycosyltransferase 73B1: MGTPVEVSKLHFLLFPFMAHGHMIPTLDMAKLFATKGAKSTILTTPLNAKLFFEKPIKSFNQDNPGLEDITIQILNFPCTELGLPDGCENTDFIFSTPDLNVGDLSQKFLLAMKYFEEPLEELLVTMRPDCLVGNMFFPWSTKVAEKFGVPRLVFHGTGYFSLCASHCIRLPKNVATSSEPFVIPDLPGDILITEEQVMETEEESVMGRFMKAIRDSERDSFGVLVNSFYELEQAYSDYFKSFVAKRAWHIGPLSLGNRKFEEKAERGKKASIDEHECLKWLDSKKCDSVIYMAFGTMSSFKNEQLIEIAAGLDMSGHDFVWVVNRKGSQVEKEDWLPEGFEEKTKGKGLIIRGWAPQVLILEHKAIGGFLTHCGWNSLLEGVAAGLPMVTWPVGAEQFYNEKLVTQVLKTGVSVGVKKMMQVVGDFISREKVEGAVREVMVGEERRKRAKELAEMAKNAVKEGGSSDLEVDRLMEELTLVKLQKEKV

Assay: UGT enzyme reaction with quercetin (recombinant UGTs, HPLC)
Type: biochemical, Arabidopsis
Settings: 0.5 mM quercetin, 5 mM UDP-glucose, 30° C.; for Specific activity (nkat/mg protein) 3-O-glc: quercetin glucosylated at 3-OH; for Specific activity (nkat/mg protein) 3′-O-glc: quercetin glucosylated at 3′-OH; for Specific activity (nkat/mg protein) 4′-O-glc: quercetin glucosylated at 4′-OH; for Specific activity (nkat/mg protein) 7-O-glc: quercetin glucosylated at 7-OH
Experimental: The assay mix (200 μl) contained 2 μg of recombinant protein, 100 mM Tris-HCl, pH 7.0, 5 mM UDP-glucose 1.4 mM 2-mercaptoethanol, and 0.5 mM of quercetin. The reaction was carried out at 30° C. for 1 h, and was quick-frozen and stored at −20° C. prior to the reverse-phase HPLC analysis
Reverse-phase HPLC (SpectraSYSTEM HPLC systems and UV6000LP Photodiode Array Detector, ThermoQuest) analysis was carried using a Columbus 5μ C18 column (250×4.60 mm, PHENOMENEX). Quercetin glucosides were separated from the aglycone by a linear gradient of 10-75% acetonitrile in H2O (all solution contained 0.1% trifluoroacetic acid) at 1 ml/mm over 20 mm and monitored at 370 nm. Cytokinin glucosides were separated from their aglycone by a liner gradient of 10-100% methanol in H2O (for N6-isopentenyladenine (iP), N6-benzyladenine and kinetin) or 10-60% methanol in H2O (for trans-zeatin and dihydrozeatin) at 1 ml/min over 20 mm. All solution contained 0.25% acetic acid and 0.04% triethylamine, trifluoroacetic acid. The separation was monitored at 206 nm and 252 nm. The identity of the products was confirmed by comparison with authentic gluco sides.
The activity of Arabidopsis recombinant UGTs towards quercetin was determined using the platform developed previously^15.

Molecule	Specific activity (nkat/mg protein) 3-O-glc	Specific activity (nkat/mg protein) 3′-O-glc	Specific activity (nkat/mg protein) 4′-O-glc	Specific activity (nkat/mg protein) 7-O-glc
B1	0.11 nkat/mg protein	— (Activity lower than 0.02 nkat/mg protein has been considered as trace activity and is not shown in the Table.)	— (Activity lower than 0.02 nkat/mg protein has been considered as trace activity and is not shown in the Table.)	— (Activity lower than 0.02 nkat/mg protein has been considered as trace activity and is not shown in the Table.)
B2	— (Activity lower than 0.02 nkat/mg protein has been considered as trace activity and is not shown in the Table.)	— (Activity lower than 0.02 nkat/mg protein has been considered as trace activity and is not shown in the Table.)	— (Activity lower than 0.02 nkat/mg protein has been considered as trace activity and is not shown in the Table.)	0.24 nkat/mg protein
B3	1.33 nkat/mg protein	— (Activity lower than 0.02 nkat/mg protein has been considered as trace activity and is not shown in the Table.)	— (Activity lower than 0.02 nkat/mg protein has been considered as trace activity and is not shown in the Table.)	0.63 nkat/mg protein
B4	0.17 nkat/mg protein	— (Activity lower than 0.02 nkat/mg protein has been considered as trace activity and is not shown in the Table.)	— (Activity lower than 0.02 nkat/mg protein has been considered as trace activity and is not shown in the Table.)	0.21 nkat/mg protein
B5	0.08 nkat/mg protein	— (Activity lower than 0.02 nkat/mg protein has been considered as trace activity and is not shown in the Table.)	— (Activity lower than 0.02 nkat/mg protein has been considered as trace activity and is not shown in the Table.)	0.12 nkat/mg protein
B6	12.14 nkat/mg protein	— (Activity lower than 0.02 nkat/mg protein has been considered as trace activity and is not shown in the Table.)	— (Activity lower than 0.02 nkat/mg protein has been considered as trace activity and is not shown in the Table.)	0.18 nkat/mg protein
B7	0.32 nkat/mg protein	— (Activity lower than 0.02 nkat/mg protein has been considered as trace activity and is not shown in the Table.)	— (Activity lower than 0.02 nkat/mg protein has been considered as trace activity and is not shown in the Table.)	0.14 nkat/mg protein

Source: US7662583B2, “Bioreactor containing cells expressing glycosyltransferase nucleic acids isolatable from Arabidopsis” (The University of York, priority 2003, dated 2010)
